Series [1] addresses T1, wtTIA-RRM123 (Homo sapiens, UniProt P31483-2 1-274).
T1 sequence: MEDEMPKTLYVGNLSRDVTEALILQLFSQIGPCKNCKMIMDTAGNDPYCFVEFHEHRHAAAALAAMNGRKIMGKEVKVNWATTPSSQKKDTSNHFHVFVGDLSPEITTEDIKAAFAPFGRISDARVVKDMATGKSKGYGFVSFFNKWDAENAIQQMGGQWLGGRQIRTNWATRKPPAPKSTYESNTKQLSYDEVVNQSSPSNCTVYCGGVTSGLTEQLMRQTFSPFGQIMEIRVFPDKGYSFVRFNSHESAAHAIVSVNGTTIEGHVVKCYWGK
In words: ITC. Background: Isothermal titration calorimetry measures the heat released or taken up as one component is titrated into another.

The target of series [2] is T1, wtTIA-RRM123. In words: ITC. This is another data set of the same source.
The target in series [3] is T2, TIA-Mut3 (Homo sapiens, UniProt P31483-2 1-274, Y206A;F242A).
T2 sequence: T1 sequence with Y206A, F242A
In words: ITC.

For series [4], the target named is T1, wtTIA-RRM123. Put plainly: ITC. The source holds these as a separate data set.
In series [5] the target is T2, TIA-Mut3. Put plainly: ITC. This is another data set of the same source.
In series [6] the target is T1, wtTIA-RRM123. In words: EMSA. Background: A gel shift assay detects complexes by their altered migration in electrophoresis.

The text below walks through data of article PMC3282181.

Numbering of substitutions follows the chain as printed. Like-named read-outs stand apart in the source and are kept apart here.

B1: U20 RNA (ssRNA)
RNA: UUUUUUUUUUUUUUUUUUUU
By Kd is commonly meant a measure of binding affinity in units of concentration. Take B1: the dissociation constant Kd with wtTIA-RRM123 [1] is 0.5 ± 0.1 nM; with wtTIA-RRM123 [2], 240 ± 10 nM; with TIA-Mut3 [3], 1270 ± 60 nM; with wtTIA-RRM123 [4], 620 ± 70 nM; in the series with TIA-Mut3 [5], 14.4 ± 6.1 nM.

B2: tnf-a ARE RNA (11 nt) (ssRNA)
RNA: UUAUUUAUUUA
B2: the binding result with wtTIA-RRM123 [6] is “binds”.
